We go through two substances from US20110239331A1.

Assay [1] has as its target bee brain calcium channels (Apis mellifera brain neurons, ICa) (Apis mellifera). In words: cell-based or functional assay.
The target in assay [2] is mouse trigeminal (sensory) neuron calcium channels (ICa) (mouse). The assay is described as follows: cell-based or functional assay.

Take omega-atracotoxin-Hv2a (peptide): in assay [1], the EC50 for inhibition of ICa was found to be 0.15 nM and the preference for insect versus vertebrate calcium channels (against m4) is over 50000 fold.
Consider “ω-agatoxin-IVA (from UniProt P30288 1-48) (peptide)”, for which, in assay [2], the EC50 for inhibition of a component of ICa in mouse sensory neurons was found to be 20 nM and the maximum ICa inhibition in mouse sensory neurons is 40%. In assay [1], the EC50 for inhibition of ICa in bee neurons came to 10 nM and the preference for insect versus vertebrate calcium channels (against m4) came to 2 fold.
